These results are taken from patent USRE46376 (Wyeth LLC, dated 2017).

Experiment [1] has as its target wild-type C. difficile toxin B (TcdB) (Clostridium difficile strain 630, UniProt P18177 2-2366). As to the kind of experiment: binding specificity, Table 18.
Experiment [2] has as its target Commercial, Control Toxin B wt (List Biologicals) (Clostridium difficile, UniProt P18177 2-2366). As to the kind of experiment: dot blot, non-denaturing conditions.

Chain of Commercial, Control Toxin B wt (List Biologicals) (P18177 2-2366 limits assumed): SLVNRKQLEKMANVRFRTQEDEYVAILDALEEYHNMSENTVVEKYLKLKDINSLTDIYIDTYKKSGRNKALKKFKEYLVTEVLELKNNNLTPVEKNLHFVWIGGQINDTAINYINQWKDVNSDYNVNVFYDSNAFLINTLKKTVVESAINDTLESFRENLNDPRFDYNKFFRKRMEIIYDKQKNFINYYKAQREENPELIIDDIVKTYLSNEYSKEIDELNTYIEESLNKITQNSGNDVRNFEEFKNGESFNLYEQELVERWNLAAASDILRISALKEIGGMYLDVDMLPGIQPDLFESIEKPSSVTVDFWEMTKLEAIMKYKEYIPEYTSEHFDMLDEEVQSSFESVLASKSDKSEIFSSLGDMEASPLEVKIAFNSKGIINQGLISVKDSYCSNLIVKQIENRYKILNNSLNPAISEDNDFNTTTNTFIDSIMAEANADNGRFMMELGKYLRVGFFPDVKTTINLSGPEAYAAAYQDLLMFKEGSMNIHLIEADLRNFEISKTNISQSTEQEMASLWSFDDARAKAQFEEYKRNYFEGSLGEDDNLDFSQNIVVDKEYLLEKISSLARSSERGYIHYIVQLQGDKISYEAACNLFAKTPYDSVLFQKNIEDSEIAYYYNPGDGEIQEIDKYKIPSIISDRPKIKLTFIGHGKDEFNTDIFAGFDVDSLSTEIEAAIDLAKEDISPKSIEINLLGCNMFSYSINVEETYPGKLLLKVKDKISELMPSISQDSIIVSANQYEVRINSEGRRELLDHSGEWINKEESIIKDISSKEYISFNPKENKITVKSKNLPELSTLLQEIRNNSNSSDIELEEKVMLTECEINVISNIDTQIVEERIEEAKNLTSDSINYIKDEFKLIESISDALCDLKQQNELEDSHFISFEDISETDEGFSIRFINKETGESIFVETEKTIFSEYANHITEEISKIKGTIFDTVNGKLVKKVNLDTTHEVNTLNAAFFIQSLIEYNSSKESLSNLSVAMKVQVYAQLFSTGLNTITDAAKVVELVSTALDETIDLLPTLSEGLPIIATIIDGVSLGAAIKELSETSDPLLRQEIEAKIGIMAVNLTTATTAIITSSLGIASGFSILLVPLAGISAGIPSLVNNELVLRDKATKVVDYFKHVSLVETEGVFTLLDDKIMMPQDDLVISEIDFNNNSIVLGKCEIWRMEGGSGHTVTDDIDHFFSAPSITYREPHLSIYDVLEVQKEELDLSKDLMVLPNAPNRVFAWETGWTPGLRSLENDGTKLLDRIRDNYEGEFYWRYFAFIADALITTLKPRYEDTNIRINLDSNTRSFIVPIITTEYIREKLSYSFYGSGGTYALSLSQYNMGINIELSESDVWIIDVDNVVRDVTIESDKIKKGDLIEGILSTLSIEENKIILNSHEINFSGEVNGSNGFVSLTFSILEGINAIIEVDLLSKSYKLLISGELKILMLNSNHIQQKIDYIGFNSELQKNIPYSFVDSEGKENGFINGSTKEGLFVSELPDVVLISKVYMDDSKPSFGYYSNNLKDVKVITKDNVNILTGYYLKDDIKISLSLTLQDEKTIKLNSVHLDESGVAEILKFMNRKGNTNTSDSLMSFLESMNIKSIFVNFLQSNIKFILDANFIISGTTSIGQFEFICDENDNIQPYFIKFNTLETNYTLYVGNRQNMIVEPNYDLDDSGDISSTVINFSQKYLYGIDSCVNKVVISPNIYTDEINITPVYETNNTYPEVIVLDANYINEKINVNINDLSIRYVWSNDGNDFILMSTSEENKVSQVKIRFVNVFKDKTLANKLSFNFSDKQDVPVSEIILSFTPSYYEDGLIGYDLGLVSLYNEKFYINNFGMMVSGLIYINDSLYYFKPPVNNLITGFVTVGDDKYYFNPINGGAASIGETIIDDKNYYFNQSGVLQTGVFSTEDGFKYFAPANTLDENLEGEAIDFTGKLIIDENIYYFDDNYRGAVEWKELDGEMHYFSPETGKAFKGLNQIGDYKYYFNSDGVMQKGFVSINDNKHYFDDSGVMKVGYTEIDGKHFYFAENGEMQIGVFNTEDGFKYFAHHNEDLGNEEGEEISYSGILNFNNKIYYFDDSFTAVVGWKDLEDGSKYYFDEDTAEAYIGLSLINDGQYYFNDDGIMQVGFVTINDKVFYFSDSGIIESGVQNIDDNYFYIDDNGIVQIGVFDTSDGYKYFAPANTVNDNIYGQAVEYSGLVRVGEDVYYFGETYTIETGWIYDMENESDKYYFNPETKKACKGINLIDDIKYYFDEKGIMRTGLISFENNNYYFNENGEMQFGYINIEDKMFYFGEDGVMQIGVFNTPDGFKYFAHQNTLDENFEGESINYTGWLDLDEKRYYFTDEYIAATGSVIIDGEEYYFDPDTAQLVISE
Chain of wild-type C. difficile toxin B (TcdB) (P18177 2-2366 limits assumed): as above

B1: B9-30 mAb (antibody, V domains shown)
VH: QVQLQQPGAEVVKPGAPVKLSCKASGYPFTNYWMNWVKQRPGRGLEWIGRIDPSNSEIYYNQKFKDKATLTVDKSSSTAYIQLSSLTSEDSAVYYCASGHYGSIFAYWGQGTTLTVSS
VL: VQITQSPSYLAASPGETITINCRASKSISKYLAWYQEKPGKTNKLLIYSGSTLQSGIPSRFSGSRSGTDFTLIISSLEPEDSAMYYCQQHNEYPLTFGAGTKLELKR
In the case of B1, the binding result in experiment [1] was “binds”.

B2: B9-30 mAb (C. difficile TcdB neutralizing antibody) (antibody, V domains shown)
VH: B1 VH
VL: B1 VL
Turning to B2, the binding result in experiment [2] was “binds”.
